# T1: YefM (native, intein-cleaved) (Escherichia coli, UniProt P69346 1-83)
# T1 sequence: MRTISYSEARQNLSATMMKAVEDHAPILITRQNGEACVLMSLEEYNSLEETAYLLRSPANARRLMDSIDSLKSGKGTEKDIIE
# T2: His10-YefM (Escherichia coli, UniProt P69346 1-83)
# T2 sequence: T1 sequence
# T3: YefM (native, intein-cleaved);YoeB (native, untagged) (Escherichia coli;Escherichia coli, UniProt P69346;P69348 1-83;1-84, |)
# T3 sequence 1: T1 sequence
# T3 sequence 2: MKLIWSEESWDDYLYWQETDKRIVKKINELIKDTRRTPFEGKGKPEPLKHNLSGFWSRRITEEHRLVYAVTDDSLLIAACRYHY
# T4: YefM-His6 (Escherichia coli, UniProt P69346 1-83)
# T4 sequence: T1 sequence
# T5: YoeB-His6 (Escherichia coli, UniProt P69348 1-84)
# T5 sequence: T3 sequence 2
# T6: YoeB (native, untagged) (Escherichia coli, UniProt P69348 1-84)
# T6 sequence: T3 sequence 2
# T7: native YoeB (Escherichia coli, UniProt P69348 1-84)
# T7 sequence: T3 sequence 2
# T8: YoeB-His6 (Escherichia coli, UniProt P69348 1-84)
# T8 sequence: T3 sequence 2
# B1: 99 bp yefM-yoeB promoter-operator (oligos 1/2) (dsDNA)
# DNA 1: GTCGAGAATTCTCTACAAACTAATTAATAAATAGTTAATTAACGCTCATCATTGTACAATGAACTGTACAAAAGAGGAGATTGACATGGGATCCAGTGC
# DNA 2: GCACTGGATCCCATGTCAATCTCCTCTTTTGTACAGTTCATTGTACAATGATGAGCGTTAATTAACTATTTATTAATTAGTTTGTAGAGAATTCTCGAC
# B2: native YefM (natural protein)
# chain: T1 sequence
# B3: YefM of the YefM–YoeB–His6 complex (natural protein)
# chain: T1 sequence
# Experiments:
# [1] = molecular target: T1, YefM (native, intein-cleaved); assay: EMSA
# [2] = molecular target: T2, His10-YefM; assay: EMSA
# [3] = molecular target: T3, YefM (native, intein-cleaved);YoeB …; assay: EMSA
# [4] = molecular target: T4, YefM-His6; assay: EMSA
# [5] = molecular target: T5, YoeB-His6; assay: EMSA
# [6] = molecular target: T6, YoeB (native, untagged); assay: EMSA
# [7] = molecular target: the molecule itself; assay: cross-linking
# [8] = molecular target: T7, native YoeB; assay: native gel or EMSA
# [9] = molecular target: T8, YoeB-His6; assay: cross-linking
Binder,binding result [1],binding result [2],binding result [3],binding result [4],binding result [5],binding result [6],stoichiometry N [7],binding result [8],binding result [9]
B1,binds,binds,binds,binds,no binding,no binding,–,–,–
B2,–,–,–,–,–,–,2,binds,–
B3,–,–,–,–,–,–,2,–,binds

# Source: publication PMC1802561 (Nucleic Acids Research, 2006)
